± gives the standard deviation of the averaged measurements.
B1: library; a variant is named by its letters at N, in order (parent)
chain: GCUGUCACCGGUGCUUGGUACGUUAUAUUCAGCCGGUCUGAUGAGUCUNNNNNNAGACGAAACAGC

How the values were obtained:
(6R,S)-folinic acid [1] = variants of: B1; assay: FACS-Seq fitted mean relative fluorescence mCherry/BFP without ligand (log10 relative fluorescence); HEK293T overexpressing SLC46A1; higher = higher reporter protein expression; conditions: without (6R,S)-folinic acid; ligand present: no
Method in brief: (§1)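 Lentivirally transduced HEK293T libraries carried an mCherry reporter with the ribozyme switch and an EF1α-BFP marker. Transduced cells were enriched, then incubated with or without ligand for 48 h and sorted into 6 bins by mCherry/BFP. Genomic DNA from each bin was PCR-amplified, barcoded and sequenced on MiSeq. Fluorescence was the fitted normal mean of log10(mCherry/BFP) bin counts, scaled to five spiked-in control ribozymes.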

(6R,S)-folinic acid [2] = variants of: B1; assay: normalized RNA/DNA level without ligand (relative to sTRSVctl = 100) (log10 (% of sTRSVctl)); HEK293T overexpressing SLC46A1; higher = less ribozyme self-cleavage, higher mRNA level; conditions: without (6R,S)-folinic acid; ligand present: no
Method in brief: (§2)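 Library plasmids encoding reporter-linked ribozyme switches (mCherry, or eGFP for some folinic acid experiments) were transfected into HEK293T at 4 µg per 6-well well. Ligand, when used, was added 1 h before transfection. Total RNA was extracted with EDTA 72 h later, then reverse-transcribed, amplified, barcoded and sequenced. RNA level was RNA reads over DNA reads, divided by a spiked-in non-cleaving control (or the top 25 sequences), ×100, log10; only sequences with ≥100 DNA reads were kept.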

(6R,S)-folinic acid [3] = variants of: B1; assay: FACS-Seq fitted mean relative fluorescence mCherry/BFP with ligand (log10 relative fluorescence); HEK293T overexpressing SLC46A1; ligand concentration (+) FACS-Seq: 6 mM; higher = higher reporter protein expression; conditions: with (6R,S)-folinic acid; ligand present: yes
Method in brief: as §1

(6R,S)-folinic acid [4] = variants of: B1; assay: normalized RNA/DNA level with ligand (relative to sTRSVctl = 100) (log10 (% of sTRSVctl)); HEK293T overexpressing SLC46A1; ligand concentration (+) RNA-Seq: 6 mM; higher = less ribozyme self-cleavage, higher mRNA level; conditions: with (6R,S)-folinic acid; ligand present: yes
Method in brief: as §2

Variant	FACS-Seq fitted mean (log10) ((6R,S)-folinic acid [1])	normalized RNA/DNA level without ligand (log10) ((6R,S)-folinic acid [2])	FACS-Seq fitted mean (log10) ((6R,S)-folinic acid [3])	normalized RNA/DNA level with ligand (log10) ((6R,S)-folinic acid [4])
GCUGUCACCGGUGCUUGGUACGUUAUAUUCAGCCGGUCUGAUGAGUCUUAUGUGAGACGAAACAGC [UAUGUG]	0.257 ± 0.25	1.65 ± 0.024	0.638 ± 0.018	1.944 ± 0.019
GCUGUCACCGGUGCUUGGUACGUUAUAUUCAGCCGGUCUGAUGAGUCUCAUGUUAGACGAAACAGC [CAUGUU]	-0.0794 ± 0.016	2.027 ± 0.017	-0.27 ± 0.064	2.04 ± 0.029
GCUGUCACCGGUGCUUGGUACGUUAUAUUCAGCCGGUCUGAUGAGUCUGAUGUUAGACGAAACAGC [GAUGUU]	0.317 ± 0.026	1.976 ± 0.0069	0.463 ± 0.066	2.01 ± 0.031
GCUGUCACCGGUGCUUGGUACGUUAUAUUCAGCCGGUCUGAUGAGUCUGAUUAAAGACGAAACAGC [GAUUAA]	0.2664 ± 0.0013	1.977 ± 0.0031	0.453 ± 0.16	2 ± 0.028
GCUGUCACCGGUGCUUGGUACGUUAUAUUCAGCCGGUCUGAUGAGUCUUAUUAAAGACGAAACAGC [UAUUAA]	-0.696 ± 0.074	1.946 ± 0.0091	-0.811 ± 0.25	1.98 ± 0.037
GCUGUCACCGGUGCUUGGUACGUUAUAUUCAGCCGGUCUGAUGAGUCUCAUUACAGACGAAACAGC [CAUUAC]	0.716 ± 0.11	1.984 ± 0.003	0.484 ± 0.06	1.98 ± 0.036
GCUGUCACCGGUGCUUGGUACGUUAUAUUCAGCCGGUCUGAUGAGUCUUAUUACAGACGAAACAGC [UAUUAC]	0.106 ± 0.011	1.984 ± 0.0099	0.38 ± 0.24	2 ± 0.035
GCUGUCACCGGUGCUUGGUACGUUAUAUUCAGCCGGUCUGAUGAGUCUGAUUAGAGACGAAACAGC [GAUUAG]	-0.00141 ± 0.0098	1.95 ± 0.0067	-0.175 ± 0.038	2.005 ± 0.013
GCUGUCACCGGUGCUUGGUACGUUAUAUUCAGCCGGUCUGAUGAGUCUUAUUAGAGACGAAACAGC [UAUUAG]	-0.162 ± 0.24	1.781 ± 0.0025	0.0465 ± 0.094	1.98 ± 0.054
GCUGUCACCGGUGCUUGGUACGUUAUAUUCAGCCGGUCUGAUGAGUCUCAUUAUAGACGAAACAGC [CAUUAU]	0.4935 ± 0.0016	1.976 ± 0.011	0.36 ± 0.13	1.98 ± 0.056
GCUGUCACCGGUGCUUGGUACGUUAUAUUCAGCCGGUCUGAUGAGUCUGAUUAUAGACGAAACAGC [GAUUAU]	0.371 ± 0.018	1.97 ± 0.013	0.305 ± 0.0094	1.992 ± 0.012
